Measurements reported in paper PMC10160976 (Proceedings of the National Academy of Sciences of the …, 2023).

T1: human LPL^S132A/R297A (inactive lipoprotein lipase mutant) (human, UniProt P06858 28-475, S132A | R297A)
T1 sequence (looked up): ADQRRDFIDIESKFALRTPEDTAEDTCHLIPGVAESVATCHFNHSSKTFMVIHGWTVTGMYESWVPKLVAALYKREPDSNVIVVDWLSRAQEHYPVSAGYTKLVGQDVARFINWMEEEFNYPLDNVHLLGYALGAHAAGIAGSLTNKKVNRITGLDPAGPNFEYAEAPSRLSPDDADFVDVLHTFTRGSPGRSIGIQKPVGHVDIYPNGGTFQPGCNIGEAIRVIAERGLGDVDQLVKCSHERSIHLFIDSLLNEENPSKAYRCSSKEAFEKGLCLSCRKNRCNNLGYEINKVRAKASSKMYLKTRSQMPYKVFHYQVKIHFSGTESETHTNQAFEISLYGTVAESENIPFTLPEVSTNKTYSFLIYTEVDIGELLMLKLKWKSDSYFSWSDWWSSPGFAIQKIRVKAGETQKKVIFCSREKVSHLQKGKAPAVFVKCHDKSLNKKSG


Experiments:
[1] = target: T1, human LPL^S132A/R297A (inactive …); assay: cell-based or functional assay
[2] = target: T1, human LPL^S132A/R297A (inactive …); assay: HDX-MS

| Binder | onset of LPL aggregation (turbidity, proxy for Tm) against APOC2^Q70E [1] | binding result [2] |
| --- | --- | --- |
| APOC2^wt (apolipoprotein C2, N-terminal 6xHis-tag) (natural protein, UniProt P02655 23-101, looked up) TQQPQQDEMPSPTFLTQVKESLSSYWESAKTAAQNLYEKTYLPAVDEKLRDLYSKSTAAMSTYTGIFTDQVLSVLKGEE | > 20 °C | – |
| soluble truncated human GPIHBP1 (residues 1 to 131) (domain or fragment, UniProt Q8IV16 21-151, looked up) QTQQEEEEEDEDHGPDDYDEEDEDEVEEEETNRLPGGRSRVLLRCYTCKSLPRDERCNLTQNCSHGQTCTTLIAHGNTESGLLTTHSTWCTDSCQPITKTVEGTQVTMTCCQSSLCNVPPWQSSRVQDPTG | – | binds |
